B1: KLHL12 (parent)
chain: REESLPNLLQYVRMPLLTPRYITD
B2: MIA2 (parent)
chain: DMVSNIELPTRIHEEVYFEPSSSK
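Also: lentivirally expressed fusions sorted by FACS into six bins by GFP to DsRed ratio, PSI derived from sequencing read proportions per bin multiplied by bin number.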

The variants in one data set derive from B1. The data set is described as follows: protein stability index of a GFP-peptide fusion (GPS, HEK-293T) (PSI 1-6); higher = more stable. The following applies: c terminus: a fixed tail appended.
In the case of REESLPNLLQYVRMPLLTPRYILD [T23L], the protein stability index was found to be 2.02.

On to REESLPNLLQYVRMPLLTPRYICD [T23C], for which the protein stability index was 2.03.

Consider REESLPNLLQYVRMPLLTPRYIQD [T23Q], for which the protein stability index amounted to 2.65.

With REESLPNLLQYVRMPLLTPRYIWD [T23W], the protein stability index stood at 1.7.

In the case of REESLPNLLQYVRMPLLTPRYIMD [T23M], the protein stability index came out at 2.61.

Regarding REESLPNLLQYVRMPLLTPRYIVD [T23V], the protein stability index was determined as 2.04.

For REESLPNLLQYVRMPLLTPRYIED [T23E], the protein stability index was determined as 2.81.

In the case of REESLPNLLQYVRMPLLTPRYIPD [T23P], the protein stability index was 2.57.

For the variant REESLPNLLQYVRMPLLTPRYIND [T23N], the protein stability index came to 2.85.

On to REESLPNLLQYVRMPLLTPRYIDD [T23D], for which the protein stability index is 3.12.

For REESLPNLLQYVRMPLLTPRYIAD [T23A], the protein stability index worked out at 2.9.

Regarding REESLPNLLQYVRMPLLTPRYISD [T23S], the protein stability index came to 2.66.

For the variant REESLPNLLQYVRMPLLTPRYIYD [T23Y], the protein stability index amounted to 2.09.

Take REESLPNLLQYVRMPLLTPRYIFD [T23F]: the protein stability index is 1.62.

Take REESLPNLLQYVRMPLLTPRYIKD [T23K]: the protein stability index was found to be 3.35.

REESLPNLLQYVRMPLLTPRYIHD [T23H]: the protein stability index was 2.58.

Regarding REESLPNLLQYVRMPLLTVRYITD [P19V], the protein stability index turned out to be 2.22.

For the variant REESLPNLLQYVRMPLLTSRYITD [P19S], the protein stability index was 2.14.

Take REESLPNLLQYVRMPLLTLRYITD [P19L]: the protein stability index is 2.48.

Take REESLPNLLQYVRMPLLTMRYITD [P19M]: the protein stability index was determined as 2.02.

Regarding REESLPNLLQYVRMPLLTNRYITD [P19N], the protein stability index was 2.48.

REESLPNLLQYVRMPLLTERYITD [P19E]: the protein stability index is 3.03.

Regarding REESLPNLLQYVRMPLLTGRYITD [P19G], the protein stability index is 2.75.

For the variant REESLPNLLQYVRMPLLTDRYITD [P19D], the protein stability index stood at 2.9.

As for REESLPNLLQYVRMPLLTFRYITD [P19F], the protein stability index was determined as 2.17.

For REESLPNLLQYVRMPLLTRRYITD [P19R], the protein stability index stood at 2.39.

Regarding REESLPNLLQYVRMPLLTKRYITD [P19K], the protein stability index came to 2.41.

For the variant REESLPNLLQYVRMPLLTARYITD [P19A], the protein stability index came out at 2.74.

For the variant REESLPNLLQYVRMPLLTHRYITD [P19H], the protein stability index amounted to 1.47.

In the case of REESLPNLLQYVRMPLLTQRYITD [P19Q], the protein stability index stood at 2.18.

For REESLPNLLQYVRMPLLTCRYITD [P19C], the protein stability index came to 2.28.

As for REESLPNLLQYVRMPLLTYRYITD [P19Y], the protein stability index was determined as 1.4.

REESLPNLLQYVRMPLLTIRYITD [P19I]: the protein stability index worked out at 2.12.

REESLPNLLQYVRMPLLTTRYITD [P19T]: the protein stability index was found to be 2.46.

For the variant REESLPNLLQYVRMPLLTWRYITD [P19W], the protein stability index worked out at 2.41.

Variants of B2 are the subject of the next data set. Described as above. To be noted: c terminus: a fixed tail appended.
Regarding DYVSNIELPTRIHEEVYFEPSSSK [M2Y], the protein stability index is 3.72.

Take DCVSNIELPTRIHEEVYFEPSSSK [M2C]: the protein stability index worked out at 4.99.

Consider DTVSNIELPTRIHEEVYFEPSSSK [M2T], for which the protein stability index came to 5.12.

On to DRVSNIELPTRIHEEVYFEPSSSK [M2R], for which the protein stability index was determined as 4.18.

On to DAVSNIELPTRIHEEVYFEPSSSK [M2A], for which the protein stability index turned out to be 5.19.

Regarding DSVSNIELPTRIHEEVYFEPSSSK [M2S], the protein stability index was 5.02.

Turning to DHVSNIELPTRIHEEVYFEPSSSK [M2H], the protein stability index is 4.48.

For the variant DDVSNIELPTRIHEEVYFEPSSSK [M2D], the protein stability index is 5.43.

As for DLVSNIELPTRIHEEVYFEPSSSK [M2L], the protein stability index came to 3.7.

Consider DVVSNIELPTRIHEEVYFEPSSSK [M2V], for which the protein stability index amounted to 3.64.

As to DFVSNIELPTRIHEEVYFEPSSSK [M2F], the protein stability index was 3.28.

With DKVSNIELPTRIHEEVYFEPSSSK [M2K], the protein stability index was found to be 3.55.

Take DNVSNIELPTRIHEEVYFEPSSSK [M2N]: the protein stability index came out at 5.1.

Regarding DQVSNIELPTRIHEEVYFEPSSSK [M2Q], the protein stability index stood at 5.01.

Consider DPVSNIELPTRIHEEVYFEPSSSK [M2P], for which the protein stability index is 5.15.

Regarding DGVSNIELPTRIHEEVYFEPSSSK [M2G], the protein stability index turned out to be 4.78.

Turning to DWVSNIELPTRIHEEVYFEPSSSK [M2W], the protein stability index came out at 2.8.

On to DEVSNIELPTRIHEEVYFEPSSSK [M2E], for which the protein stability index was 5.23.

As for DIVSNIELPTRIHEEVYFEPSSSK [M2I], the protein stability index worked out at 3.62.

With VMVSNIELPTRIHEEVYFEPSSSK [D1V], the protein stability index came to 1.98.

For TMVSNIELPTRIHEEVYFEPSSSK [D1T], the protein stability index is 3.63.

As to WMVSNIELPTRIHEEVYFEPSSSK [D1W], the protein stability index was 2.63.

Consider NMVSNIELPTRIHEEVYFEPSSSK [D1N], for which the protein stability index worked out at 4.15.

With MMVSNIELPTRIHEEVYFEPSSSK [D1M], the protein stability index amounted to 2.73.

As to SMVSNIELPTRIHEEVYFEPSSSK [D1S], the protein stability index worked out at 3.5.

As for YMVSNIELPTRIHEEVYFEPSSSK [D1Y], the protein stability index stood at 3.42.

Take RMVSNIELPTRIHEEVYFEPSSSK [D1R]: the protein stability index stood at 4.25.

For the variant GMVSNIELPTRIHEEVYFEPSSSK [D1G], the protein stability index was determined as 3.65.

On to LMVSNIELPTRIHEEVYFEPSSSK [D1L], for which the protein stability index turned out to be 3.11.

On to FMVSNIELPTRIHEEVYFEPSSSK [D1F], for which the protein stability index was determined as 2.87.

For EMVSNIELPTRIHEEVYFEPSSSK [D1E], the protein stability index came out at 3.16.

Turning to PMVSNIELPTRIHEEVYFEPSSSK [D1P], the protein stability index was 4.09.

QMVSNIELPTRIHEEVYFEPSSSK [D1Q]: the protein stability index was found to be 3.95.

As for HMVSNIELPTRIHEEVYFEPSSSK [D1H], the protein stability index was 4.67.

With IMVSNIELPTRIHEEVYFEPSSSK [D1I], the protein stability index came out at 2.36.

CMVSNIELPTRIHEEVYFEPSSSK [D1C]: the protein stability index turned out to be 2.86.

Take KMVSNIELPTRIHEEVYFEPSSSK [D1K]: the protein stability index worked out at 3.93.

Regarding AMVSNIELPTRIHEEVYFEPSSSK [D1A], the protein stability index amounted to 3.62.

Regarding DMVANIELPTRIHEEVYFEPSSSK [S4A], the protein stability index was determined as 3.97.

On to DMVCNIELPTRIHEEVYFEPSSSK [S4C], for which the protein stability index amounted to 3.44.

Take DMCSNIELPTRIHEEVYFEPSSSK [V3C]: the protein stability index was found to be 3.97.

For the variant DMQSNIELPTRIHEEVYFEPSSSK [V3Q], the protein stability index was found to be 4.02.

Regarding DMFSNIELPTRIHEEVYFEPSSSK [V3F], the protein stability index was found to be 3.73.

For DMNSNIELPTRIHEEVYFEPSSSK [V3N], the protein stability index came out at 3.86.

On to DMWSNIELPTRIHEEVYFEPSSSK [V3W], for which the protein stability index was found to be 3.15.

Turning to DMPSNIELPTRIHEEVYFEPSSSK [V3P], the protein stability index turned out to be 4.1.

Consider DMLSNIELPTRIHEEVYFEPSSSK [V3L], for which the protein stability index is 3.53.

On to DMDSNIELPTRIHEEVYFEPSSSK [V3D], for which the protein stability index came out at 3.89.

On to DMSSNIELPTRIHEEVYFEPSSSK [V3S], for which the protein stability index is 4.26.

On to DMHSNIELPTRIHEEVYFEPSSSK [V3H], for which the protein stability index came to 3.56.

Take DMESNIELPTRIHEEVYFEPSSSK [V3E]: the protein stability index amounted to 4.65.

DMYSNIELPTRIHEEVYFEPSSSK [V3Y]: the protein stability index was 3.87.

DMTSNIELPTRIHEEVYFEPSSSK [V3T]: the protein stability index was 3.04.

In the case of DMISNIELPTRIHEEVYFEPSSSK [V3I], the protein stability index worked out at 4.26.

Turning to DMKSNIELPTRIHEEVYFEPSSSK [V3K], the protein stability index turned out to be 4.02.

As for DMGSNIELPTRIHEEVYFEPSSSK [V3G], the protein stability index was 4.23.

DMMSNIELPTRIHEEVYFEPSSSK [V3M]: the protein stability index was 4.09.

For DMASNIELPTRIHEEVYFEPSSSK [V3A], the protein stability index is 3.79.

Consider DMRSNIELPTRIHEEVYFEPSSSK [V3R], for which the protein stability index was determined as 4.56.

The values are drawn from the supplement of paper PMC10567573.
